Test results from article PMC12809855, “Biochemical and Mechanistic Insights into O2 Scavenging and Stability of the Soluble Hydrogenase from Hydrogenophaga pseudoflava” (ACS Omega, 2025).

Substrate: NC(=O)c1ccc[n+]([C@@H]2O[C@H](COP(=O)(O)OP(=O)(O)OC[C@H]3O[C@@H](n4cnc5c(N)ncnc54)[C@H](O)[C@@H]3O)[C@@H](O)[C@H]2O)c1
Test: purified protein
Format: biochemical, Hydrogenophaga pseudoflava
Settings: H2-saturated buffer, 50 mM Tris-HCl, no additional salt, pH 7, 30 °C, 1 mM TCEP, 1 μM FMN, kcat apparent

B1: HpSH (soluble hydrogenase from Hydrogenophaga pseudoflava, HoxFUYH) (Hydrogenophaga pseudoflava) (protein)
chain: MTAFDQPSALHAADAVLARWQHDPHALVQVLRETQAQTHWLPRELLAHIAAALRLTTAHVEGVASFYRFFHLRPVGRVHVLFSDNITDRMAGSDALMARLCARLGVAPGQVDAQGRFCVDRCSCTGLCDQGPALLVNHHQVVTRLDAGRVDQLAERLLAGVPPEDWPADWFAVEDHVRRADVLLQGLPADAPSLPAVLSRTPAELLAEVERSGLRGRGGAGFPTARKWRACAEADAPDGQRCVVCNADEGEPGTFKDRVLLGRHADELFDGMTLAARAIGAQTGLVYLRGEYRFLLPQLEAVLQRRRANGLLGRNAGGVAGFDFDIAIHLGAGAYVCGEESALIESLEGQRGTPRIRPPFPVQRGYLGRPTVVNNVETLVAVAHIARRGGAWWAGLGTPESTGTKIHSVSGDCERPGLYEYPLGTPLAQILADCGARNAQAVQVGGPSGSCVPASGFHRAIAFEDLPSAGALMVFDQTRDLFEVARHFARFFAHESCGLCTPCRVGTELVVRRLDKLAHERGAGRGSAFDIARLQELDALLHSGTHCGLGVSACNPLRDTLAHFGQAYAQRSTAAQFQPGIDLDAELSSARRATGRQDRGAHLNTEHGA
notes: full-length HoxFUYH heterotetramer, N-terminal Strep-tag on HoxF, coexpressed with endopeptidase HoxW (HoxH C-terminally processed), homologous expression in H. pseudoflava from pOCEx1; no HoxI; preparation has excess HoxF; with NAD-reducing hydrogenase HoxS subunit gamma; NAD-reducing hydrogenase HoxS subunit delta; NAD-reducing hydrogenase HoxS subunit beta
For B1, the Km was 400 ± 140 µM and the kcat was 137 ± 20 s⁻¹.
